Source: IntAct's records for PubMed 17272281

B1: S-M checkpoint control protein rad4 (Schizosaccharomyces pombe (strain ATCC 38366 / 972)), P32372 (parent)
chain: MGSSKPLKGFVICCTSIDLKQRTEISTKATKLGAAYRSDFTKDVTHLIAGDFDTPKYKFAAKSRPDIKIMSSEWIPVLYESWVQGEDLDDGLLVDKHFLPTLFKCRVCLTNIGQPERSRIENYVLKHGGTFCPDLTRDVTHLIAGTSSGRKYEYALKWKINVVCVEWLWQSIQRNAVLEPQYFQLDMPAEKIGLGAYVRLDPNTTEAKSYSENQKISKNKEKSGQSLAALAEEADLEPVIMKRGKKRDRSILWEELNNGKFEFSSRSEENSVLLDDFTPETVQPLEENELDTELNIENEAKLFKNLTFYLYEFPNTKVSRLHKCLSDNGGQISEFLSSTIDFVVIPHYFPVDELPIFSFPTVNEWWIERCLYYKKIFGIDEHALAKPFFRPSLVPYFNGLSIHLTGFKGEELSHLKKALTILGAVVHEFLGVQRSILLVNTNEPFSMKTRFKIQHATEWNVRVVGVAWLWNIIQSGKFIDQVSPWAIDKKENQEIKKFTNQNNMVFPTSDRDTRLQNSLAQQPIGHSTPHNSPSLLSVKKRQNNHIRSNTLIQLNSNSKDSTIFPRRSVTVPGDKIDTVWKSSVTKPETPTSPQEHVSYIDPDAQREKHKLYAQLTSNVDAIPPANDLQNQENGLLLITESHRKLRRR
partner: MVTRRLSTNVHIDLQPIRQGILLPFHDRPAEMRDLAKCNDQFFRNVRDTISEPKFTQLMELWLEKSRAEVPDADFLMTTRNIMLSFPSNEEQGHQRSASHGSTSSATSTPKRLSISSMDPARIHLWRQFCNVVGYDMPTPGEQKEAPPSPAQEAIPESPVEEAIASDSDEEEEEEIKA

Variants of: B1
Conditions: with yq61_schpo yq61, O94733

effect of a mutation on the interaction | Variant
decreasing interaction | S171N
